From paper PMC3634854, “S100A12 Suppresses Pro-inflammatory, but Not Pro-Thrombotic Functions of Serum Amyloid A” (PLoS ONE, 2013)
Values joined by “and” are separate entries in the source; they are usually repeats but may differ in a detail not shown here. Equal entries are not always repeated.

Target: the molecule itself
Experiment: cross-linking; S100A12 (1 µg) and SAA (1 µg), alone or together, with bis[sulfosuccinimidyl] suberate (BS3, 5 µM) in PBS, in the presence or absence of 1 mM Ca2+, 30 min at RT in the dark; 10% SDS-PAGE under non-reducing conditions, silver stain

B1: Human recombinant S100A12 (natural protein, UniProt P80511 1-92, looked up)
chain: MTKLEEHLEGIVNIFHQYSVRKGHFDTLSKGELKQLLTKELANTIKNIKDKAVIDEIFQGLDANQDEQVDFQEFISLVAIALKAAHYHTHKE
notes: S100A12, human, recombinant
- stoichiometry N: 2 and 4
